Results as given in patent US20130142802A1 (published 2013).

B3: soluble FGFR2 IIIc-Fc fusion protein (Fc fusion)
chain: RPSFSLVEDTTLEPEGAPYWTNTEKMEKRLHAVPAANTVKFRCPAGGNPMPTMRWLKNGKEFKQEHRIGGYKVRNQHWSLIMESVVPSDKGNYTCVVENEYGSINHTYHLDVVERSPHRPILQAGLPANASTVVGGDVEFVCKVYSDAQPHIQWIKHVEKNGSKYGPDGLPYLKVLKAAGVNTTDKEIEVLYIRNVTFEDAGEYTCLAGNSIGISFHSAWLTVLPAPGREKEITASPDYLERSDKTHTCPPCPAPELLGGPSVFLFPPKPKDTLYITREPEVTCVVVDVSHEDPEVKFNWYVDGVEVHNAKTKPREEQYNSTYRVVSVLTVLHQDWLNGKEYKCKVSNKALPAPIEKTISKAKGQPREPQVYTLPPSREEMTKNQVSLTCLVKGFYPSDIAVEWESNGQPENNYKTTPPVLDSDGSFFLYSKLTVDKSRWQQGNVFSCSVMHEALKFHYTQKSLSLSPGK
notes: Extracellular domain of human FGFR2 beta (IIIc), aa 1-262, Arg-Ser linker, human IgG1 Fc; signal peptide 1-21 left out; also called FGFR2 beta-ECD; FGFR2c beta-EDC

Legend:
FGFR2 IIIb-Fc = biological target: T1, FGFR2 IIIb-Fc (human); assay: ELISA: soluble scFv on coated protein (2 ug/ml)
T1 construct: also called FGFR2IIIb beta-ECD; FGFR2IIIb-hFc
T1 chain: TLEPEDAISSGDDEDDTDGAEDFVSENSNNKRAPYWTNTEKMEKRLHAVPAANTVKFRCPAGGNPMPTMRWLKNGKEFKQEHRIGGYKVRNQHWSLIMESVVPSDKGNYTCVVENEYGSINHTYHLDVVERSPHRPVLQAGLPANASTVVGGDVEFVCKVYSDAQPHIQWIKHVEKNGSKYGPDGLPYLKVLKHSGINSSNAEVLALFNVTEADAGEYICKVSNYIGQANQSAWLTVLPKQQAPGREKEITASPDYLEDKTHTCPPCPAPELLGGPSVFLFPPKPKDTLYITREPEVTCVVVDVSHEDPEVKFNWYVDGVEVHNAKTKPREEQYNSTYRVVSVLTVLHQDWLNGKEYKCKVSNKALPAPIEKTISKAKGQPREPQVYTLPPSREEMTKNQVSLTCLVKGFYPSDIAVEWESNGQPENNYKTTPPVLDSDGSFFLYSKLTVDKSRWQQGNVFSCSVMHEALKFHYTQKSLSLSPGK

[1] = biological target: B3; assay: ELISA: soluble scFv on coated protein (2 ug/ml)
human ovalbumin (OA) [2] = biological target: human ovalbumin (OA) (human); assay: ELISA: soluble scFv on coated protein (2 ug/ml)
human ferritin (Fer) [3] = biological target: T2, human ferritin (Fer) (human, UniProt P02794 2-183; P02792 2-175, Natural ferritin is a 24-subunit shell of H and L chains in a tissue-dependent ratio, with an iron core. The letters carry one copy of each subunit.); assay: phage ELISA on coated protein
T2 construct: also called Feritin

human ferritin (Fer) [4] = biological target: T2, human ferritin (Fer); assay: phage ELISA on coated protein; remark: listed apart in the source
[5] = biological target: T3, 128AA-mFc (128-amino acid loop-3 fragment of FGFR2IIIc fused to mouse Fc) (human); assay: phage ELISA on coated protein
T3 chain: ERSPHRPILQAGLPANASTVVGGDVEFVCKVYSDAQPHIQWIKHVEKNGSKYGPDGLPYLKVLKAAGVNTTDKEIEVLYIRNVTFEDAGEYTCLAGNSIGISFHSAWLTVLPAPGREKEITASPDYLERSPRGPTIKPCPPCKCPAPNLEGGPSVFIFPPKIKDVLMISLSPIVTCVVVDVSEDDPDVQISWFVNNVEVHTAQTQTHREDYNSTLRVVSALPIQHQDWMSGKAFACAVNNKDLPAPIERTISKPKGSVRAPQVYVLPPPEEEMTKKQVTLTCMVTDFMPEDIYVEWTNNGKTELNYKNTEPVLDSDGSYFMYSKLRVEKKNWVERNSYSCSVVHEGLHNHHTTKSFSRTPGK

human ovalbumin (OA) [6] = biological target: human ovalbumin (OA) (human); assay: phage ELISA on coated protein
[7] = biological target: T4, dcFv-01 (Fc-fusion of human scFv Clone 1) (human); assay: competition ELISA: antibody pre-incubated with FGFR2IIIc-Fc, then added to ligand-coated plate (legend paragraph 175: FGF8; paragraph 640: FGF2); bound receptor detected
T4 construct: scFv-1 fragment fused to the N-terminus of human IgG1 Fc; bivalent; also called dcFv-1; clone dcFv-1; not shown: human IgG1 Fc of vector pFUSE-hIgG1e2-Fc2(IL2ss) (Invivogen)

FGF8b = biological target: T5, FGF8b (UniProt P55075-3 23-215); assay: ELISA: receptor Fc fusion (4 ug/ml) on coated FGF8b, anti-human IgG Fc-HRP
T5 construct: Coated on ELISA plates; also called ligand protein FGF8b
T5 sequence (looked up): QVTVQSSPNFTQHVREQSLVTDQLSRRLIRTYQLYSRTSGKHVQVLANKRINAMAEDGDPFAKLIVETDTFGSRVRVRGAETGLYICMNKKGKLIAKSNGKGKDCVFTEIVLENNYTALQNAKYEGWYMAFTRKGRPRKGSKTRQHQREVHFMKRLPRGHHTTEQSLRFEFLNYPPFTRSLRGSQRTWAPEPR

B1: human scFv clone 6, soluble (scFv)
scFv: QSVLTQPPSVSAAPGQKVTISCSGSSSNIGNNYVSWYQQLPGTAPKLLIYDNNKRPSGIPDRFSDSKSGTSATLGITGLQTGDEADYYCGTWDSSLSAVVFGGGTKLTVLGSGGSTITSYNVYYTKLSSSGTEVQLVQSGAEVKKPGSSVKVSCKASGGTFSSYAISWVRQAPGQGLEWMGRIIPILGIANYAQKFQGRVTITADKSTSTAYMELSSLRSEDTAVYYCARDPLLWSYFDYWGQGTLVTVSS
notes: Tags are not described; also called scFv-6; Atto-HuMab-06
OD (450 nm) (FGFR2 IIIb-Fc): 0.012 | OD (450 nm) [1]: 0.571 | OD (450 nm) (human ovalbumin (OA) [2]): 0.015

B2: human scFv clone 6, phage-displayed (scFv)
scFv: QSVLTQPPSVSAAPGQKVTISCSGSSSNIGNNYVSWYQQLPGTAPKLLIYDNNKRPSGIPDRFSDSKSGTSATLGITGLQTGDEADYYCGTWDSSLSAVVFGGGTKLTVLGSGGSTITSYNVYYTKLSSSGTEVQLVQSGAEVKKPGSSVKVSCKASGGTFSSYAISWVRQAPGQGLEWMGRIIPILGIANYAQKFQGRVTITADKSTSTAYMELSSLRSEDTAVYYCARDPLLWSYFDYWGQGTLVTVSS
notes: also called scFv-6; Atto-HuMab-06
binding result (human ferritin (Fer) [3]): no binding | OD (450 nm) (human ferritin (Fer) [4]): 0.006 | OD (450 nm) [5]: 0.106 | OD (450 nm) (human ovalbumin (OA) [6]): 0.018

B3
binding result [7]: binds | binding result (FGF8b): binds
